Assay [1] concerns the target SARS-2^hg monomer (hyperglycosylated SARS-2 RBD) (SARS-CoV-2 (engineered)) (UniProt P0DTC2). In words: BLI, Fab on FAB2G sensor, hyperglycosylated construct as analyte.
Assay [2] addresses rsYNLF-34C (v2 resurfaced YNLF_34C RBD carrying SARS-2 residues 401-507) (bat sarbecovirus YNLF_34C; SARS-CoV-2).
The target in assay [3] is SARS-2^hg monomer (hyperglycosylated SARS-2 RBD) (SARS-CoV-2 (engineered)) (UniProt P0DTC2).

By Kd is commonly meant the constant that tells how readily two partners part at equilibrium. Low readings indicate higher affinity, high ones lower affinity.

For B38 Fab, in assay [1], the fold decrease in affinity for B38 stood at 2 fold. Further, the Kd was found to be 1400 nM in assay [2] and 2100 nM in assay [3].

(Values after patent US20250032605A1.)
